This passage reports Kd and Ka results from paper PMC11116813 (2024).

Holding throughout (test): ITC
Experiment [1] addresses human HP1α chromoshadow domain (CSD), recombinant (human).
Experiment [2] concerns the target T1, full-length human HP1α WT (hHP1α), recombinant (human, UniProt P45973 1-191).
Experiment [3] has as its target human HP1α chromoshadow domain (CSD), recombinant (human). The source holds these as a separate data set.
For experiment [4], the target named is T1, full-length human HP1α WT (hHP1α), …. This is another data set of the same source.

For orientation: Kd means the concentration at which binding is half-saturated.

Sequence of human HP1α chromoshadow domain (CSD), recombinant (human) (chain, as listed by the source): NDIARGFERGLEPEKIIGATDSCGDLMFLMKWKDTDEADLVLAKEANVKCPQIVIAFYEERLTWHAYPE
T1 sequence (P45973 whole entry, the tested form may be a part): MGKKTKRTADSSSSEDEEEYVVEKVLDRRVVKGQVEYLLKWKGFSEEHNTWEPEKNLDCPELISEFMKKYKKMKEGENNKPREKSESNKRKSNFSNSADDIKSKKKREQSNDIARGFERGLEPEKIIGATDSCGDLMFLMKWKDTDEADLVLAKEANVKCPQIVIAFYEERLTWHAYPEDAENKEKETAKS

B1: human INCENP (160-210) -6His, GST removed (domain or fragment)
chain: HTQCQLVPVVEIGISERQNAEQHVTQLMSTEPLPRTLSPTPASATAPTSQG
As to B1, the Kd worked out at 39 nM in experiment [1] and 25 nM in experiment [2]. For the same molecule, the Ka amounted to 2.56e+07 M⁻¹ in experiment [3] and 3.9e+07 M⁻¹ in experiment [4].

B2: human INCENP fragment (121-210) WT used in Fig. 6A (domain or fragment)
chain: YLRRVTRAAAAAAAATMALAAPSSPTPESPTMLTKKPEDNHTQCQLVPVVEIGISERQNAEQHVTQLMSTEPLPRTLSPTPASATAPTSQG
Consider B2, for which the Kd in experiment [2] was found to be 55 nM. Moreover, the Ka in experiment [4] is 1.82e+07 M⁻¹.

B3: human INCENP (160-192), untagged version (Tyr-added), GST removed (domain or fragment)
chain: YHTQCQLVPVVEIGISERQNAEQHVTQLMSTEPL
Take B3: the Kd in experiment [1] worked out at 39 nM. Besides, in experiment [3], the Ka was 2.57e+07 M⁻¹.

B4: human Sgo1 fragment (405-494), Tyr-added, GST removed (domain or fragment)
chain: YAKRALKYTDEKETEGSKPTKTPTTTPPETQQSPHLSLKDITNVSLYPVVKIRRLSLSPKKNKASPAVALPKRRCTASVNYKEPTLASKLR
B4: the Ka in experiment [4] came out at 242000 M⁻¹.

B5: human INCENP (121-270) WT -6His, GST removed (domain or fragment)
chain: LRRVTRAAAAAAAATMALAAPSSPTPESPTMLTKKPEDNHTQCQLVPVVEIGISERQNAEQHVTQLMSTEPLPRTLSPTPASATAPTSQGIPTSDEESTPKKSKARILESITVSSLMATPQDPKGQGVGTGRSASKLRIAQVSPGPRDSP
For B5, the Ka in experiment [4] worked out at 2.35e+07 M⁻¹.

B6: human INCENP (121-210) -6His, GST removed (Fig. 2D) (domain or fragment)
chain: LRRVTRAAAAAAAATMALAAPSSPTPESPTMLTKKPEDNHTQCQLVPVVEIGISERQNAEQHVTQLMSTEPLPRTLSPTPASATAPTSQG
As for B6, in experiment [2], the Kd was 14 nM. Further, the Ka in experiment [4] came to 7.25e+07 M⁻¹.
